Results on 11 molecules are retold here after patent publication US20220056517A1 (OXFORD NANOPORE TECHNOLOGIES, published 2022).

No end group written: not given here. *: point of attachment. NH(CH2)5NH2 = NCCCCCN*

To fix the notation:
B7: E. coli CsgG (wild-type) fused C-terminally to a Strep-II tag, outer membrane pore (other)
chain: CLTAPPKEAARPTLMPRAQSYKDLTHLPAPTGKIFVSVYNIQDETGQFKPYPASNFSTAVPQSATAMLVTALKDSRWFIPLERQGLQNLLNERKIIRAAQENGTVAINNRIPLQSLTAANIMVEGSIIGYESNVKSGGVGARYFGIGADTQYQLDQIAVNLRVVNVSTGEILSSVNTSKTILSYEVQAGVFRFIDYQRLLEGEVGYTSNEPVMLCLMSAIETGVIFLINDGIDRGLWDLQNKAERQNDILVKYRHMSVPPES
modifications: N-terminal lipidation of mature CsgG (Cys at the N-terminal position)
notes: Nonameric pore; dimers of nonamers also seen; also called CsgG-Strep; CsgG-strep; not shown: C-terminal Strep-II tag

Series [1] has as its target T1, CsgG Y51A/N55V/F56Q/N91R/K94Q/R97W-del(V105-I107) pore containing the C terminal strep tag (E. coli, UniProt P0AEA2 16-277).
T1 construct: Oligomeric CsgG pore; also called Y51A/F56Q/N55V/N91R/K94Q/R97W-del(V105-I107); not shown: C-terminal Strep tag
T1 chain: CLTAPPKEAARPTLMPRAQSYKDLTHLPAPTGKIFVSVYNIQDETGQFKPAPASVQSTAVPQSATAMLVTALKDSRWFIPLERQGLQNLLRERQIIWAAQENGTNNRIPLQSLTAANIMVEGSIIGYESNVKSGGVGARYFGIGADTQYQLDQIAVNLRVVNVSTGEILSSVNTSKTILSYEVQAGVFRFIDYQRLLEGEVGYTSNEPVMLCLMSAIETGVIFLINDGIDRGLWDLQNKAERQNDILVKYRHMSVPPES
Put plainly: reconstitution with synthetic peptide, electrophysiology.

The target of series [2] is T2, CsgG Y51A/F56Q/N91R/K94Q/R97W-del(V105-I107) pore containing the C terminal strep tag (E. coli, UniProt P0AEA2 16-277).
T2 construct: Oligomeric CsgG pore; not shown: C-terminal Strep tag
T2 chain: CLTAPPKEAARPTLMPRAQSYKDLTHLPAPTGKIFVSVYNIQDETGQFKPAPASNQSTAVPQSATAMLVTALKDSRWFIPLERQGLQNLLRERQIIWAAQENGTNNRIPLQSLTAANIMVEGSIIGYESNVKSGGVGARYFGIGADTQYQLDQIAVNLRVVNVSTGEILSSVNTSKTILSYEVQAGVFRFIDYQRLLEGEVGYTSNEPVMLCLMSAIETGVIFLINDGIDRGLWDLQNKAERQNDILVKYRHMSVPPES
The experiment in a line: co-expression, purification, TEV cleavage; DNA translocation current recording.

The target of series [3] is B7. The experiment in a line: cryo-EM of co-purified or in vitro reconstituted CsgG:CsgF particles.
Series [4] concerns the target T3, CsgG Y51T/N55V/F56Q/N91R/K94Q/R97W-del(V105-I107) pore containing the C terminal strep tag (E. coli, UniProt P0AEA2 16-277).
T3 construct: not shown: C-terminal Strep tag
T3 chain: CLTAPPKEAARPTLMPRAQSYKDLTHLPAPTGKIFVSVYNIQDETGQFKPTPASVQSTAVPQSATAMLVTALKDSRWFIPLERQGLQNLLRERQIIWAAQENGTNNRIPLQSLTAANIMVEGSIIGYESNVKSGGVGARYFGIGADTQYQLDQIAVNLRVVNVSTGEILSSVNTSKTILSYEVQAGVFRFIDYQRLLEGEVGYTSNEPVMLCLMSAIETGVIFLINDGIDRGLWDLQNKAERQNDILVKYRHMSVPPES
Put plainly: panel B; in vitro reconstitution; DNA translocation current recording.

The target of series [5] is T1, CsgG …. Put plainly: in vitro reconstitution; DNA translocation current recording.
Series [6] has as its target T4, CsgG Y51A/F56A/N91R/K94Q/R97W-del(V105-I107) pore containing the C terminal strep tag (E. coli, UniProt P0AEA2 16-277).
T4 construct: not shown: C-terminal Strep tag
T4 chain: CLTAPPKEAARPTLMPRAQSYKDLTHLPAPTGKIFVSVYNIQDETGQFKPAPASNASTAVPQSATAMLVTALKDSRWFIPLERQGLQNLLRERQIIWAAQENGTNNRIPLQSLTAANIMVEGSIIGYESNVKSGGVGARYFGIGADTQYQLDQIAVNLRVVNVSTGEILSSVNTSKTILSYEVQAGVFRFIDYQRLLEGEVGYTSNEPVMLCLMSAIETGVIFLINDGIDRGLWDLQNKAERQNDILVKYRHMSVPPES
Put plainly: panel D; in vitro reconstitution; DNA translocation current recording.

The target in series [7] is T5, CsgG Y51A/N55I/F56Q/N91R/K94Q/R97W-del(V105-I107) pore containing the C terminal strep tag (E. coli, UniProt P0AEA2 16-277).
T5 construct: also called Y51A/N551/F56Q/N91R/K94Q/R97W-del(V105-I107) (sic); not shown: C-terminal Strep tag
T5 chain: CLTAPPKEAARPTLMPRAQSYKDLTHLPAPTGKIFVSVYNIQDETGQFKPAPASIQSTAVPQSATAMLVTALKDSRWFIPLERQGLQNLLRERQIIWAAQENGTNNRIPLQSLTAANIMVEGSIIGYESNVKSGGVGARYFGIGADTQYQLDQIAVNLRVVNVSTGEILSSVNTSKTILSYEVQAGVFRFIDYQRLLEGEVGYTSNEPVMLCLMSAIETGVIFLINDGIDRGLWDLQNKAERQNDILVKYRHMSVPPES
Put plainly: panel C; in vitro reconstitution; DNA translocation current recording.

For series [8], the target named is T6, CsgG Y51S/N55V/F56Q/N91R/K94Q/R97W-del(V105-I107) pore containing the C terminal strep tag (E. coli, UniProt P0AEA2 16-277).
T6 construct: also called Y515/N55V/F56Q/N91R/K94Q/R97W-del(V105-I107) (sic); not shown: C-terminal Strep tag
T6 chain: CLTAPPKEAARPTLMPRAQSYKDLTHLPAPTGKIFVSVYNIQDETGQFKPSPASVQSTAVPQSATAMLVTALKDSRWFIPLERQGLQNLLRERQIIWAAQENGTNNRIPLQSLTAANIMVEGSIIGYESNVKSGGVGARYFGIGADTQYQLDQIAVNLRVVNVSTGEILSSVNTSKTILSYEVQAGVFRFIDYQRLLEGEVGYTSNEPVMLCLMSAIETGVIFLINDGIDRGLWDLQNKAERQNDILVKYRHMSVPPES
Put plainly: panel F; in vitro reconstitution; DNA translocation current recording.

Series [9] addresses B7. Put plainly: in vitro reconstitution (2:1 molar ratio), StrepTactin pull down, native PAGE with fluorescence.
Series [10] deals with T7, CsgG Y51A/F56Q/K94Q/R97W/R192D-del(V105-I107), Strep-tagged (E. coli, UniProt P0AEA2 16-277).
T7 construct: Oligomeric CsgG pore; also called CsgG mutant with altered constriction; not shown: Strep tag
T7 chain: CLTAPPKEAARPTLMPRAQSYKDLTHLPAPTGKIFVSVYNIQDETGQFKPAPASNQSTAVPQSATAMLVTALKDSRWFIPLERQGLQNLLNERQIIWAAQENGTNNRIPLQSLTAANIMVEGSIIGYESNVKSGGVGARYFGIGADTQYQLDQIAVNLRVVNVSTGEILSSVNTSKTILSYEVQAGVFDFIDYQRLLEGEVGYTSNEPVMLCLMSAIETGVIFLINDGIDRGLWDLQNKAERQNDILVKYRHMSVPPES
The series is described as above.

The target of series [11] is B7. The experiment in a line: co-expression, Strep affinity purification, anti-His dot blot.
Series [12] deals with the molecule itself. Put plainly: size exclusion chromatography (Superose 6); pore-pore dimer.
Series [13] deals with the molecule itself. Put plainly: size exclusion chromatography (S200 increase) of Strep- and ion-exchange-purified CsgG pore; pore-pore dimer. On the technique in general: In gel filtration, larger molecules generally elute earlier.

B1: CsgF-(1-30) synthetic peptide (peptide)
peptide: GTMTFQFRNPNFGGNPNNGAFLLNSAQAQN
notes: Range counted on mature CsgF; also called mature peptide of CsgF 1:30
For the molecule B1, in series [1], the binding result is listed as “binds”.

B2: CsgF truncated at position 35 by TEV protease cleavage, with ENLYFQ left at the cleavage site (peptide)
peptide: GTMTFQFRNPNFGGNPNNGAFLLNSAQAQNSYKDPENLYFQ
notes: also called CsgF truncated protein; No mutations at 17 position of CsgF
Regarding B2, in series [2], the binding result is given as “binds”.

B3: CsgF N17S truncated at position 35 by TEV protease cleavage, with ENLYFQ left at the cleavage site (peptide)
peptide: GTMTFQFRNPNFGGNPSNGAFLLNSAQAQNSYKDPENLYFQ
notes: also called N175 mutation in CsgF (sic, N17S)
For the molecule B3, in [2], the binding result is on record as “binds”.

B4: E. coli CsgF (mature) with C-terminal 6x histidine tag (other)
chain: GTMTFQFRNPNFGGNPNNGAFLLNSAQAQNSYKDPSYNDDFGIETPSALDNFTQAIQSQILGGLLSNINTGKPGRMVTNDYIVDIANRDGQLQLNVTDRKTGQTSTIQVSGLQNNSTDFHHHHHH
notes: also called CsgF-His; CsgF-his
On to B4, for which, in series [3], the binding result is given as “binds”.

With GTMTFQFRNPNFGGNPSNGAFLLNSAQAQNSYKDP (also called CsgF-N175-(1-35) (sic)) [CsgF-N17S-(1-35) peptide], the binding result in series [4], in series [5], in [6], in series [7] and in series [8] was “binds” throughout.

On to GTMTFQFRNPNFGGNPVNGAFLLNSAQAQNSYKDP [CsgF-N17V-(1-35) peptide], for which the binding result in series [5] was “binds”.

B5: Alexa 594-labelled synthetic CsgF peptide corresponding to the first 34 residues of mature CsgF (peptide)
peptide: GTMTFQFRNPNFGGNPNNGAFLLNSAQAQNSYKD-{NH(CH2)5NH2-Alexa594}
notes: also called CsgF N-terminal peptide; FCP
B5: the binding result in [9] and in series [10] was “binds” in each case.

As to GTMTFQFRNPNFGGNPNNGAFLLNSAQAQ [CsgF-(1-29) synthetic peptide], the binding result in series [1] is listed as “binds”.

B6: CsgF 20:64 peptide with C-terminal 6xHis (from pNA100) (peptide)
peptide: GTMTFQFRNPNFGGNPNNGAFLLNSAQAQNSYKDPSYNDDFGIETHHHHHH
notes: first 45 residues of mature CsgF; also called CsgF fragment 1-64; CsgF 1-64
Consider B6, for which, in series [11], the binding result was “binds”.

Consider B7, for which the binding result in [12] was “binds”.

B8: Pro-CP1-Eco-(WT-Y51A/F56Q/D149N/E185N/E201N/E203N-StrepII(C)) CsgG pore (other)
chain: CLTAPPKEAARPTLMPRAQSYKDLTHLPAPTGKIFVSVYNIQDETGQFKPAPASNQSTAVPQSATAMLVTALKDSRWFIPLERQGLQNLLNERKIIRAAQENGTVAINNRIPLQSLTAANIMVEGSIIGYESNVKSGGVGARYFGIGANTQYQLDQIAVNLRVVNVSTGEILSSVNTSKTILSYNVQAGVFRFIDYQRLLNGNVGYTSNEPVMLCLMSAIETGVIFLINDGIDRGLWDLQNKAERQNDILVKYRHMSVPPESSAWSHPQFEK
notes: The entry already holds the mutations and the StrepII tag; also called Pro-CP1-Eco-(Mutant-StrepII(C)); monomeric pore
With B8, the binding result in series [13] was “binds”.
